Molecular target: T1, Flag-tagged Pds5b (wild type) phosphorylated by Nek2a and Cdk1/2-cyclin A2 (human, UniProt Q9NTI5 1-1447, phosphoserine at 1161 and 1166 (by Cdk1/2-cyclin A2) and at 1177, 1182 and 1209 (by Nek2a))
T1 construct: Pds5b, human; insert by PCR on human cDNA; How fully each site was phosphorylated in these preparations was not measured; also called Pds5b-WT treated with these two kinases; Pds5b co-expressed with Nek2aΔMR and Δ86-cyclin A2
T1 sequence (looked up): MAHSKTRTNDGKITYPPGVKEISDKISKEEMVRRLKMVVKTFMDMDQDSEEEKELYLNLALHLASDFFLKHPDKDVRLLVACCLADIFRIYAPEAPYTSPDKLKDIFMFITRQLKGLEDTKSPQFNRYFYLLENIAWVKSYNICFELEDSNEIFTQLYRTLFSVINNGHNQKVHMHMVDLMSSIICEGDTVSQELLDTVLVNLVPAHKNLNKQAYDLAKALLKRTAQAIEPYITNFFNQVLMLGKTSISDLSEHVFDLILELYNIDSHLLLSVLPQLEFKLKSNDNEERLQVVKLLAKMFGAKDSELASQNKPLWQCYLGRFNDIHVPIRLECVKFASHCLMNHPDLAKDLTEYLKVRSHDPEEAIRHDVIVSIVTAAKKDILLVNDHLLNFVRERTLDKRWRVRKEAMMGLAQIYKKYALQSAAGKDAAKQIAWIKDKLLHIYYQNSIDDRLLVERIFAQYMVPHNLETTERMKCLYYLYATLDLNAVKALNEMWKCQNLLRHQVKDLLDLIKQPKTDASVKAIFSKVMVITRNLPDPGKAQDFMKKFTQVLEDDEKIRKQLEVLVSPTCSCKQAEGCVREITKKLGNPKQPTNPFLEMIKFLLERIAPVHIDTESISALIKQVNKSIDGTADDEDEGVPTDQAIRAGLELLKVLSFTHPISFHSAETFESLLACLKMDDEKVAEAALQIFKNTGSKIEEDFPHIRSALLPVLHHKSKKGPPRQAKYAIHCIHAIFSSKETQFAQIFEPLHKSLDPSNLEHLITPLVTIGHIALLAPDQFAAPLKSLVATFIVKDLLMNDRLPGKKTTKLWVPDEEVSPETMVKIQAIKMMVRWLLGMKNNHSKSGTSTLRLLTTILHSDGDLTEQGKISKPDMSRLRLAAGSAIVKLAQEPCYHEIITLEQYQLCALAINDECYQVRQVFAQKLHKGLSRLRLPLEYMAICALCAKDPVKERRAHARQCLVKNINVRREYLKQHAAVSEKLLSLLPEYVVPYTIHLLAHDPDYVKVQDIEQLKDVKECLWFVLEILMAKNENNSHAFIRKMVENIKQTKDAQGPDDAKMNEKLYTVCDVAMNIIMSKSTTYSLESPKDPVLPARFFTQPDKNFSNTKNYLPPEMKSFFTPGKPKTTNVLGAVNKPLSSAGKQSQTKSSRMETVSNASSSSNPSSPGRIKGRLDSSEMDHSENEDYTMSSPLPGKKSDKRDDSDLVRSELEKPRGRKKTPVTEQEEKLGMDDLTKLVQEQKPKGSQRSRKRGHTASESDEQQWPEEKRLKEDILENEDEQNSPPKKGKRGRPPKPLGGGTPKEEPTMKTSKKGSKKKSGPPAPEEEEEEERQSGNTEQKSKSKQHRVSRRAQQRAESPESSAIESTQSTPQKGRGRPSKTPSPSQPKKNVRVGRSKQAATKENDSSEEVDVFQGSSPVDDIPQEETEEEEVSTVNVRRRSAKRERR
Assay: pull-down; Flag-Pds5b variants affinity-purified from Nek2a- and cyclin A2-free prometaphase cells, incubated on the beads with recombinant Nek2a and/or Cdk1/2-cyclin A2 and ATP, washed, then incubated with recombinant Wapl (2 µl) and sororin (0.3 µg) in 15 µl cleavage buffer without ATP, 20 min at 37 °C; immunoblotting
Conditions: both partners purified

B1: recombinant human Wapl (natural protein, UniProt Q7Z5K2 1-1190, looked up)
chain: MTSRFGKTYSRKGGNGSSKFDEVFSNKRTTLSTKWGETTFMAKLGQKRPNFKPDIQEIPKKPKVEEESTGDPFGFDSDDESLPVSSKNLAQVKCSSYSESSEAAQLEEVTSVLEANSKISHVVVEDTVVSDKCFPLEDTLLGKEKSTNRIVEDDASISSCNKLITSDKVENFHEEHEKNSHHIHKNADDSTKKPNAETTVASEIKETNDTWNSQFGKRPESPSEISPIKGSVRTGLFEWDNDFEDIRSEDCILSLDSDPLLEMKDDDFKNRLENLNEAIEEDIVQSVLRPTNCRTYCRANKTKSSQGASNFDKLMDGTSQALAKANSESSKDGLNQAKKGGVSCGTSFRGTVGRTRDYTVLHPSCLSVCNVTIQDTMERSMDEFTASTPADLGEAGRLRKKADIATSKTTTRFRPSNTKSKKDVKLEFFGFEDHETGGDEGGSGSSNYKIKYFGFDDLSESEDDEDDDCQVERKTSKKRTKTAPSPSLQPPPESNDNSQDSQSGTNNAENLDFTEDLPGVPESVKKPINKQGDKSKENTRKIFSGPKRSPTKAVYNARHWNHPDSEELPGPPVVKPQSVTVRLSSKEPNQKDDGVFKAPAPPSKVIKTVTIPTQPYQDIVTALKCRREDKELYTVVQHVKHFNDVVEFGENQEFTDDIEYLLSGLKSTQPLNTRCLSVISLATKCAMPSFRMHLRAHGMVAMVFKTLDDSQHHQNLSLCTAALMYILSRDRLNMDLDRASLDLMIRLLELEQDASSAKLLNEKDMNKIKEKIRRLCETVHNKHLDLENITTGHLAMETLLSLTSKRAGDWFKEELRLLGGLDHIVDKVKECVDHLSRDEDEEKLVASLWGAERCLRVLESVTVHNPENQSYLIAYKDSQLIVSSAKALQHCEELIQQYNRAEDSICLADSKPLPHQNVTNHVGKAVEDCMRAIIGVLLNLTNDNEWGSTKTGEQDGLIGTALNCVLQVPKYLPQEQRFDIRVLGLGLLINLVEYSARNRHCLVNMETSCSFDSSICSGEGDDSLRIGGQVHAVQALVQLFLERERAAQLAESKTDELIKDAPTTQHDKSGEWQETSGEIQWVSTEKTDGTEEKHKKEEEDEELDLNKALQHAGKHMEDCIVASYTALLLGCLCQESPINVTTVREYLPEGDFSIMTEMLKKFLSFMNLTCAVGTTGQKSISRVIEYLEHC
notes: Wapl, human; insert by PCR on human cDNA; Isolated from mitotically arrested cells; also called GFP-SUMOstar-Wapl; source: Hek293T, transiently transfected, taxol-arrested; not shown: GFP, N-terminal, cleaved; SUMOstar, N-terminal, cleaved
  binding result: binds
